# Laboratory results from patent EP4745153A1, “GLP-1, GIP AND GCG RECEPTOR […] USE THEREOF” (Jiangsu Hengrui Pharmaceuticals Co., Ltd., priority 2023, dated 2025).
# Starred links: 1 amine or outer side, 2 acyl side, 3 side chain; linkers in the order of their positions; H or OH if unused. Non-standard residues stand in square brackets, D forms with d. Groups on a side chain read outwards from the residue. No end group written: not given here. *: point of attachment. C20 diacid = O=C(O)CCCCCCCCCCCCCCCCCCC(=O)*; γGlu = O=C(O)[C@H](CCC(=O)[*:2])N[*:1]; αMeL = CC(C)C[C@](C)(N)C(=O)O; αMeK = C[C@](N)(CCCCN)C(=O)O; Iva = CC[C@](C)(N)C(=O)O; AEEA = NCCOCCOCC(=O)O; Aib = CC(C)(N)C(=O)O
# T1: human glucose-dependent insulinotropic polypeptide receptor (human, UniProt P48546 22-466)
# T1 sequence (looked up): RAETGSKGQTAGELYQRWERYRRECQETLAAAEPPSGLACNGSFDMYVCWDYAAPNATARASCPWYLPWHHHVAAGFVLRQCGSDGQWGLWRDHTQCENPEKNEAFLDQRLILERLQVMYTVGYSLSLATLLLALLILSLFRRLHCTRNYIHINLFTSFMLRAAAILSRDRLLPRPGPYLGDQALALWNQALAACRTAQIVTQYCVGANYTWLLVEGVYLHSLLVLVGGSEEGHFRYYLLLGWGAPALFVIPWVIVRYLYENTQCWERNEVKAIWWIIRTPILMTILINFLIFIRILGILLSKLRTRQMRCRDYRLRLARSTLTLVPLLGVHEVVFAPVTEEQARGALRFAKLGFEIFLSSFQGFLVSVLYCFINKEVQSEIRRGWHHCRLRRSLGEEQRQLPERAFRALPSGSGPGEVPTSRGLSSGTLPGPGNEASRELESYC
# B1: Compound No. 0144 (peptide)
# peptide: H[Aib]HGTFTSDLSILLEK([AEEA-AEEA-γGlu-C20 diacid])KAAQEFVEWLLA[dE]GPSSGAPPPS-NH2
# B2: Compound No. 0139 (peptide)
# peptide: H[Aib]HGTFTSDYSI[αMeL]LEK([AEEA-AEEA-γGlu-C20 diacid])KAAQEFVEWLLA[dE]GPSSGAPPPS-NH2
# modifications: N-terminus assumed
# SMILES: CC[C@H](C)[C@H](NC(=O)[C@H](CO)NC(=O)[C@H](Cc1ccc(O)cc1)NC(=O)[C@H](CC(=O)O)NC(=O)[C@H](CO)NC(=O)[C@@H](NC(=O)[C@H](Cc1ccccc1)NC(=O)[C@@H](NC(=O)CNC(=O)[C@H](Cc1c[nH]cn1)NC(=O)C(C)(C)NC(=O)[C@@H](N)Cc1c[nH]cn1)[C@@H](C)O)[C@@H](C)O)C(=O)N[C@@](C)(CC(C)C)C(=O)N[C@@H](CC(C)C)C(=O)N[C@@H](CCC(=O)O)C(=O)N[C@@H](CCCCNC(=O)COCCOCCNC(=O)COCCOCCNC(=O)CC[C@H](NC(=O)CCCCCCCCCCCCCCCCCCC(=O)O)C(=O)O)C(=O)N[C@@H](CCCCN)C(=O)N[C@@H](C)C(=O)N[C@@H](C)C(=O)N[C@@H](CCC(N)=O)C(=O)N[C@@H](CCC(=O)O)C(=O)N[C@@H](Cc1ccccc1)C(=O)N[C@H](C(=O)N[C@@H](CCC(=O)O)C(=O)N[C@@H](Cc1c[nH]c2ccccc12)C(=O)N[C@@H](CC(C)C)C(=O)N[C@@H](CC(C)C)C(=O)N[C@@H](C)C(=O)N[C@H](CCC(=O)O)C(=O)NCC(=O)N1CCC[C@H]1C(=O)N[C@@H](CO)C(=O)N[C@@H](CO)C(=O)NCC(=O)N[C@@H](C)C(=O)N1CCC[C@H]1C(=O)N1CCC[C@H]1C(=O)N1CCC[C@H]1C(=O)N[C@@H](CO)C(N)=O)C(C)C
# B3: Compound No. 0142 (peptide)
# peptide: H[Aib]HGTFTSDLSI[αMeL]LEK([AEEA-AEEA-γGlu-C20 diacid])KAAQEFVEWLLA[dE]GPSSGAPPPS-NH2
# modifications: N-terminus assumed
# SMILES: CC[C@H](C)[C@H](NC(=O)[C@H](CO)NC(=O)[C@H](CC(C)C)NC(=O)[C@H](CC(=O)O)NC(=O)[C@H](CO)NC(=O)[C@@H](NC(=O)[C@H](Cc1ccccc1)NC(=O)[C@@H](NC(=O)CNC(=O)[C@H](Cc1c[nH]cn1)NC(=O)C(C)(C)NC(=O)[C@@H](N)Cc1c[nH]cn1)[C@@H](C)O)[C@@H](C)O)C(=O)N[C@@](C)(CC(C)C)C(=O)N[C@@H](CC(C)C)C(=O)N[C@@H](CCC(=O)O)C(=O)N[C@@H](CCCCNC(=O)COCCOCCNC(=O)COCCOCCNC(=O)CC[C@H](NC(=O)CCCCCCCCCCCCCCCCCCC(=O)O)C(=O)O)C(=O)N[C@@H](CCCCN)C(=O)N[C@@H](C)C(=O)N[C@@H](C)C(=O)N[C@@H](CCC(N)=O)C(=O)N[C@@H](CCC(=O)O)C(=O)N[C@@H](Cc1ccccc1)C(=O)N[C@H](C(=O)N[C@@H](CCC(=O)O)C(=O)N[C@@H](Cc1c[nH]c2ccccc12)C(=O)N[C@@H](CC(C)C)C(=O)N[C@@H](CC(C)C)C(=O)N[C@@H](C)C(=O)N[C@H](CCC(=O)O)C(=O)NCC(=O)N1CCC[C@H]1C(=O)N[C@@H](CO)C(=O)N[C@@H](CO)C(=O)NCC(=O)N[C@@H](C)C(=O)N1CCC[C@H]1C(=O)N1CCC[C@H]1C(=O)N1CCC[C@H]1C(=O)N[C@@H](CO)C(N)=O)C(C)C
# B4: Compound No. 0143 (peptide)
# peptide: H[Aib]HGTFTSDLSI[αMeL]LEK([AEEA-AEEA-γGlu-C20 diacid])KAAQEFVEWLLAGGPSSGAPPPS-NH2
# modifications: N-terminus assumed
# SMILES: CC[C@H](C)[C@H](NC(=O)[C@H](CO)NC(=O)[C@H](CC(C)C)NC(=O)[C@H](CC(=O)O)NC(=O)[C@H](CO)NC(=O)[C@@H](NC(=O)[C@H](Cc1ccccc1)NC(=O)[C@@H](NC(=O)CNC(=O)[C@H](Cc1c[nH]cn1)NC(=O)C(C)(C)NC(=O)[C@@H](N)Cc1c[nH]cn1)[C@@H](C)O)[C@@H](C)O)C(=O)N[C@@](C)(CC(C)C)C(=O)N[C@@H](CC(C)C)C(=O)N[C@@H](CCC(=O)O)C(=O)N[C@@H](CCCCNC(=O)COCCOCCNC(=O)COCCOCCNC(=O)CC[C@H](NC(=O)CCCCCCCCCCCCCCCCCCC(=O)O)C(=O)O)C(=O)N[C@@H](CCCCN)C(=O)N[C@@H](C)C(=O)N[C@@H](C)C(=O)N[C@@H](CCC(N)=O)C(=O)N[C@@H](CCC(=O)O)C(=O)N[C@@H](Cc1ccccc1)C(=O)N[C@H](C(=O)N[C@@H](CCC(=O)O)C(=O)N[C@@H](Cc1c[nH]c2ccccc12)C(=O)N[C@@H](CC(C)C)C(=O)N[C@@H](CC(C)C)C(=O)N[C@@H](C)C(=O)NCC(=O)NCC(=O)N1CCC[C@H]1C(=O)N[C@@H](CO)C(=O)N[C@@H](CO)C(=O)NCC(=O)N[C@@H](C)C(=O)N1CCC[C@H]1C(=O)N1CCC[C@H]1C(=O)N1CCC[C@H]1C(=O)N[C@@H](CO)C(N)=O)C(C)C
# B5: Compound No. 0132 (peptide)
# peptide: H[Aib]HGTFTSDYS[αMeK]ILEK([AEEA-AEEA-γGlu-C20 diacid])KAA[Iva]EFVEWLIEGGPSSGAPPPS-NH2
# modifications: N-terminus assumed
# SMILES: CC[C@H](C)[C@H](NC(=O)[C@H](CC(C)C)NC(=O)[C@H](Cc1c[nH]c2ccccc12)NC(=O)[C@H](CCC(=O)O)NC(=O)[C@@H](NC(=O)[C@H](Cc1ccccc1)NC(=O)[C@H](CCC(=O)O)NC(=O)[C@](C)(CC)NC(=O)[C@H](C)NC(=O)[C@H](C)NC(=O)[C@H](CCCCN)NC(=O)[C@H](CCCCNC(=O)COCCOCCNC(=O)COCCOCCNC(=O)CC[C@H](NC(=O)CCCCCCCCCCCCCCCCCCC(=O)O)C(=O)O)NC(=O)[C@H](CCC(=O)O)NC(=O)[C@H](CC(C)C)NC(=O)[C@@H](NC(=O)[C@](C)(CCCCN)NC(=O)[C@H](CO)NC(=O)[C@H](Cc1ccc(O)cc1)NC(=O)[C@H](CC(=O)O)NC(=O)[C@H](CO)NC(=O)[C@@H](NC(=O)[C@H](Cc1ccccc1)NC(=O)[C@@H](NC(=O)CNC(=O)[C@H](Cc1c[nH]cn1)NC(=O)C(C)(C)NC(=O)[C@@H](N)Cc1c[nH]cn1)[C@@H](C)O)[C@@H](C)O)[C@@H](C)CC)C(C)C)C(=O)N[C@@H](CCC(=O)O)C(=O)NCC(=O)NCC(=O)N1CCC[C@H]1C(=O)N[C@@H](CO)C(=O)N[C@@H](CO)C(=O)NCC(=O)N[C@@H](C)C(=O)N1CCC[C@H]1C(=O)N1CCC[C@H]1C(=O)N1CCC[C@H]1C(=O)N[C@@H](CO)C(N)=O
# B6: Compound No. 0130 (peptide)
# peptide: H[Aib]HGTFTSDYS[αMeK]ILEK([AEEA-AEEA-γGlu-C20 diacid])QAA[Iva]EFVEWLLAGGPSSGAPPPS-NH2
# B7: Compound No. 0131 (peptide)
# peptide: H[Aib]HGTFTSDYS[αMeK]LLEK([AEEA-AEEA-γGlu-C20 diacid])KAA[Iva]EFVEWLIEGGPSSGAPPPS-NH2
# modifications: N-terminus assumed
# SMILES: CC[C@H](C)[C@H](NC(=O)[C@H](CC(C)C)NC(=O)[C@H](Cc1c[nH]c2ccccc12)NC(=O)[C@H](CCC(=O)O)NC(=O)[C@@H](NC(=O)[C@H](Cc1ccccc1)NC(=O)[C@H](CCC(=O)O)NC(=O)[C@](C)(CC)NC(=O)[C@H](C)NC(=O)[C@H](C)NC(=O)[C@H](CCCCN)NC(=O)[C@H](CCCCNC(=O)COCCOCCNC(=O)COCCOCCNC(=O)CC[C@H](NC(=O)CCCCCCCCCCCCCCCCCCC(=O)O)C(=O)O)NC(=O)[C@H](CCC(=O)O)NC(=O)[C@H](CC(C)C)NC(=O)[C@H](CC(C)C)NC(=O)[C@](C)(CCCCN)NC(=O)[C@H](CO)NC(=O)[C@H](Cc1ccc(O)cc1)NC(=O)[C@H](CC(=O)O)NC(=O)[C@H](CO)NC(=O)[C@@H](NC(=O)[C@H](Cc1ccccc1)NC(=O)[C@@H](NC(=O)CNC(=O)[C@H](Cc1c[nH]cn1)NC(=O)C(C)(C)NC(=O)[C@@H](N)Cc1c[nH]cn1)[C@@H](C)O)[C@@H](C)O)C(C)C)C(=O)N[C@@H](CCC(=O)O)C(=O)NCC(=O)NCC(=O)N1CCC[C@H]1C(=O)N[C@@H](CO)C(=O)N[C@@H](CO)C(=O)NCC(=O)N[C@@H](C)C(=O)N1CCC[C@H]1C(=O)N1CCC[C@H]1C(=O)N1CCC[C@H]1C(=O)N[C@@H](CO)C(N)=O
# Target: T2, human glucagon receptor (human, UniProt P47871 26-477)
# T2 sequence (P47871 26-477): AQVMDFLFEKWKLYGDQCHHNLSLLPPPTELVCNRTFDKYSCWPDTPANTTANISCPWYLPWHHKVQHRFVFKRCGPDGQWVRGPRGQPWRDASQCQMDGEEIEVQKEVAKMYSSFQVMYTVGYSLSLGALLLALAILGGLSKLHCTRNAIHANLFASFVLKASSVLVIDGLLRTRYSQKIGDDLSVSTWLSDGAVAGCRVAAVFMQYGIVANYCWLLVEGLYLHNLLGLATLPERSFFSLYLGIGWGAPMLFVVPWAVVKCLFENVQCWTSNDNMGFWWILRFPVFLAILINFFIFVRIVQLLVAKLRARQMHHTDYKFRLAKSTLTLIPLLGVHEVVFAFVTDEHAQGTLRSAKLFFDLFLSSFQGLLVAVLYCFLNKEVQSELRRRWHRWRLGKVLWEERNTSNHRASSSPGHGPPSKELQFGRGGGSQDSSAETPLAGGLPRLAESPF
# Test: cell-based or functional assay
row,Binder,Activity against human GCGR (EC50 nM) [nM]
1,B1,0.311
2,B2,0.43
3,B3,0.49
4,B4,0.423

# Target: T1, human glucose-dependent insulinotropic …
# Test: cell-based or functional assay
row,Binder,Activity against human GIPR (EC50 nM) [nM]
1,B1,0.012
2,B2,0.007
3,B3,0.007
4,B4,0.004

# Target: T3, human glucagon-like peptide-1 receptor (human, UniProt P43220 24-463)
# Test: cell-based or functional assay
row,Binder,Activity against human GLP-1R (EC50 nM) [nM]
1,B1,0.035
2,B2,0.043
3,B3,0.058
4,B4,0.09

# Target: T2, human glucagon receptor
# Test: cell-based or functional assay
# Remark: another data set of the same source
row,Binder,Activity against human GCGR (EC50 nM) [nM]
1,B5,0.03
2,B6,0.03
3,B7,0.026

# Target: T1, human glucose-dependent insulinotropic …
# Test: cell-based or functional assay
# Remark: another data set of the same source
row,Binder,Activity against human GIPR (EC50 nM) [nM]
1,B5,0.001
2,B6,0.0005
3,B7,0.0007

# Target: T3, human glucagon-like peptide-1 receptor
# Test: cell-based or functional assay
# Remark: another data set of the same source
row,Binder,Activity against human GLP-1R (EC50 nM) [nM]
1,B5,0.024
2,B6,0.048
3,B7,0.02
